The RNAGym collection of RNA variant scans (doi:10.1093/molbev/msab373)

B1: Azoarcus group I ribozyme (parent)
chain: GUGCCUUGCGCCGGGAAACCACGCAAGGGAUGGUGUCAAAUUCGGCGAAACCUAAGCGCCCGCCCGGGCGUAUGGCAACGCCGAGCCAAGCUUCGGCGCCUGCGCCGAUGAAGGUGUAGAGACUAGACGGCACCCACCUAAGGCAAACGCUAUGGUGAAGGCAUAGUCCAGGGAGUGGCGAAAGUCACACAAACCGG

Variants of: B1
Assay: reverse-splicing fitness (ratio to wild type); higher = more active; in vitro selection; Mg2+ level not given
Method in brief: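 An in vitro group I ribozyme library with randomized positions was T7-transcribed and gel-purified. In triplicate, 10 pmol RNA in EPPS pH 7.5 was reacted with 50 pmoles of a 30-nt RNA substrate for 1 h at 37 °C across several added MgCl2 levels (1–48 mM), then stopped with EDTA. Products were reverse transcribed from a substrate-complementary primer, PCR-amplified and sequenced (HiSeq 4000). Fitness is a variant's read proportion after selection over that before, normalised to wild type.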

| Variant | reverse-splicing fitness |
| --- | --- |
| GUGCCUUGCGCCGGGAAACCACGCAAGGGAUGGUGUCAAAUUCGGCGAAACCUAAGCGCCCGCCCGGGCGUAUGGCAACGCGGAGCCAAGCUUCGGCGCCUGCGCCGAUGAAGGUGUAGGGACUAGACGGCACCCACCUAAGGCGAACGGUAUGGUGAAGGCAUAGUCUAGGGAGAGGCGAAAGUCACACAAACCGG | 0.0131 |
| GUGCCUUGCGCCGGGAAACCACGCAAGGGAUGGUGUCAAAUUCGGCGAAACCUAAGCGCCCGCCCGGGCGUAUGGCAACGCGGAGCCAAGCUUCGGCGCCUGCGCCGAUGAAGGUGUAGGGACUAGACGGCACCCACCUAAGGCGAACGGUAUGGUGAAGGCAUAGUCUAGGGAGCGGCGAAAGUCACACAAACCGG | 0.0139 |
| GUGCCUUGCGCCGGGAAACCACGCAAGGGAUGGUGUCAAAUUCGGCGAAACCUAAGCGCCCGCCCGGGCGUAUGGCAACGCGGAGCCAAGCUUCGGCGCCUGCGCCGAUGAAGGUGUAGGGACUAGACGGCACCCACCUAAGGCGAACGGUAUGGUGAAGGCAUAGUCUAGGGAGGGGCGAAAGUCACACAAACCGG | 0.00717 |
| GUGCCUUGCGCCGGGAAACCACGCAAGGGAUGGUGUCAAAUUCGGCGAAACCUAAGCGCCCGCCCGGGCGUAUGGCAACGCGGAGCCAAGCUUCGGCGCCUGCGCCGAUGAAGGUGUAGGGACUAGACGGCACCCACCUAAGGCGAACGAUAUGGUGAAGGCAUAGUCGAGGGAGCGGCGAAAGUCACACAAACCGG | 0.0296 |
| GUGCCUUGCGCCGGGAAACCACGCAAGGGAUGGUGUCAAAUUCGGCGAAACCUAAGCGCCCGCCCGGGCGUAUGGCAACGCGGAGCCAAGCUUCGGCGCCUGCGCCGAUGAAGGUGUAGGGACUAGACGGCACCCACCUAAGGCGAACGAUAUGGUGAAGGCAUAGUCGAGGGAGAGGCGAAAGUCACACAAACCGG | 0.0188 |
| GUGCCUUGCGCCGGGAAACCACGCAAGGGAUGGUGUCAAAUUCGGCGAAACCUAAGCGCCCGCCCGGGCGUAUGGCAACGCGGAGCCAAGCUUCGGCGCCUGCGCCGAUGAAGGUGUAGGGACUAGACGGCACCCACCUAAGGCGAACGAUAUGGUGAAGGCAUAGUCGAGGGAGGGGCGAAAGUCACACAAACCGG | 0.00507 |
| GUGCCUUGCGCCGGGAAACCACGCAAGGGAUGGUGUCAAAUUCGGCGAAACCUAAGCGCCCGCCCGGGCGUAUGGCAACGCGGAGCCAAGCUUCGGCGCCUGCGCCGAUGAAGGUGUAGGGACUAGACGGCACCCACCUAAGGCGAACGGUAUGGUGAAGGCAUAGUCAAGGGAGGGGCGAAAGUCACACAAACCGG | 0.0077 |
| GUGCCUUGCGCCGGGAAACCACGCAAGGGAUGGUGUCAAAUUCGGCGAAACCUAAGCGCCCGCCCGGGCGUAUGGCAACGCGGAGCCAAGCUUCGGCGCCUGCGCCGAUGAAGGUGUAGGGACUAGACGGCACCCACCUAAGGCGAACGGUAUGGUGAAGGCAUAGUCAAGGGAGAGGCGAAAGUCACACAAACCGG | 0.013 |
| GUGCCUUGCGCCGGGAAACCACGCAAGGGAUGGUGUCAAAUUCGGCGAAACCUAAGCGCCCGCCCGGGCGUAUGGCAACGCGGAGCCAAGCUUCGGCGCCUGCGCCGAUGAAGGUGUAGGGACUAGACGGCACCCACCUAAGGCGAACGGUAUGGUGAAGGCAUAGUCAAGGGAGCGGCGAAAGUCACACAAACCGG | 0.013 |
| GUGCCUUGCGCCGGGAAACCACGCAAGGGAUGGUGUCAAAUUCGGCGAAACCUAAGCGCCCGCCCGGGCGUAUGGCAACGCGGAGCCAAGCUUCGGCGCCUGCGCCGAUGAAGGUGUAGGGACUAGACGGCACCCACCUAAGGCGAACGAUAUGGUGAAGGCAUAGUCUAGGGAGUGGCGAAAGUCACACAAACCGG | 0.011 |
| GUGCCUUGCGCCGGGAAACCACGCAAGGGAUGGUGUCAAAUUCGGCGAAACCUAAGCGCCCGCCCGGGCGUAUGGCAACGCGGAGCCAAGCUUCGGCGCCUGCGCCGAUGAAGGUGUAGGGACUAGACGGCACCCACCUAAGGCGAACGAUAUGGUGAAGGCAUAGUCGAGGGAGUGGCGAAAGUCACACAAACCGG | 0.0133 |
| GUGCCUUGCGCCGGGAAACCACGCAAGGGAUGGUGUCAAAUUCGGCGAAACCUAAGCGCCCGCCCGGGCGUAUGGCAACGCGGAGCCAAGCUUCGGCGCCUGCGCCGAUGAAGGUGUAGGGACUAGACGGCACCCACCUAAGGCGAACGGUAUGGUGAAGGCAUAGUCGAGGGAGUGGCGAAAGUCACACAAACCGG | 0.0108 |
| GUGCCUUGCGCCGGGAAACCACGCAAGGGAUGGUGUCAAAUUCGGCGAAACCUAAGCGCCCGCCCGGGCGUAUGGCAACGCGGAGCCAAGCUUCGGCGCCUGCGCCGAUGAAGGUGUAGGGACUAGACGGCACCCACCUAAGGCGAACGGUAUGGUGAAGGCAUAGUCAAGGGAGUGGCGAAAGUCACACAAACCGG | 0.0111 |
| GUGCCUUGCGCCGGGAAACCACGCAAGGGAUGGUGUCAAAUUCGGCGAAACCUAAGCGCCCGCCCGGGCGUAUGGCAACGCGGAGCCAAGCUUCGGCGCCUGCGCCGAUGAAGGUGUAGGGACUAGACGGCACCCACCUAAGGCGAACGGUAUGGUGAAGGCAUAGUCUAGGGAGUGGCGAAAGUCACACAAACCGG | 0.0109 |
| GUGCCUUGCGCCGGGAAACCACGCAAGGGAUGGUGUCAAAUUCGGCGAAACCUAAGCGCCCGCCCGGGCGUAUGGCAACGCGGAGCCAAGCUUCGGCGCCUGCGCCGAUGAAGGUGUAGGGACUAGACGGCACCCACCUAAGGCGAACGGUAUGGUGAAGGCAUAGUCCAGGGAGUGGCGAAAGUCACACAAACCGG | 0.00886 |
| GUGCCUUGCGCCGGGAAACCACGCAAGGGAUGGUGUCAAAUUCGGCGAAACCUAAGCGCCCGCCCGGGCGUAUGGCAACGCGGAGCCAAGCUUCGGCGCCUGCGCCGAUGAAGGUGUAGGGACUAGACGGCACCCACCUAAGGCGAACGUUAUGGUGAAGGCAUAGUCCAGGGAGUGGCGAAAGUCACACAAACCGG | 0.0247 |
| GUGCCUUGCGCCGGGAAACCACGCAAGGGAUGGUGUCAAAUUCGGCGAAACCUAAGCGCCCGCCCGGGCGUAUGGCAACGCGGAGCCAAGCUUCGGCGCCUGCGCCGAUGAAGGUGUAGGGACUAGACGGCACCCACCUAAGGCGAACGGUAUGGUGAAGGCAUAGUCGAGGGAGGGGCGAAAGUCACACAAACCGG | 0.00567 |
| GUGCCUUGCGCCGGGAAACCACGCAAGGGAUGGUGUCAAAUUCGGCGAAACCUAAGCGCCCGCCCGGGCGUAUGGCAACGCGGAGCCAAGCUUCGGCGCCUGCGCCGAUGAAGGUGUAGGGACUAGACGGCACCCACCUAAGGCGAACGGUAUGGUGAAGGCAUAGUCGAGGGAGCGGCGAAAGUCACACAAACCGG | 0.0129 |
| GUGCCUUGCGCCGGGAAACCACGCAAGGGAUGGUGUCAAAUUCGGCGAAACCUAAGCGCCCGCCCGGGCGUAUGGCAACGCGGAGCCAAGCUUCGGCGCCUGCGCCGAUGAAGGUGUAGGGACUAGACGGCACCCACCUAAGGCGAACGGUAUGGUGAAGGCAUAGUCGAGGGAGAGGCGAAAGUCACACAAACCGG | 0.0108 |
| GUGCCUUGCGCCGGGAAACCACGCAAGGGAUGGUGUCAAAUUCGGCGAAACCUAAGCGCCCGCCCGGGCGUAUGGCAACGCGGAGCCAAGCUUCGGCGCCUGCGCCGAUGAAGGUGUAGGGACUAGACGGCACCCACCUAAGGCGAACGAUAUGGUGAAGGCAUAGUCAAGGGAGCGGCGAAAGUCACACAAACCGG | 0.0228 |
| GUGCCUUGCGCCGGGAAACCACGCAAGGGAUGGUGUCAAAUUCGGCGAAACCUAAGCGCCCGCCCGGGCGUAUGGCAACGCGGAGCCAAGCUUCGGCGCCUGCGCCGAUGAAGGUGUAGGGACUAGACGGCACCCACCUAAGGCGAACGAUAUGGUGAAGGCAUAGUCAAGGGAGGGGCGAAAGUCACACAAACCGG | 0.00618 |
| GUGCCUUGCGCCGGGAAACCACGCAAGGGAUGGUGUCAAAUUCGGCGAAACCUAAGCGCCCGCCCGGGCGUAUGGCAACGCGGAGCCAAGCUUCGGCGCCUGCGCCGAUGAAGGUGUAGGGACUAGACGGCACCCACCUAAGGCGAACGGUAUGGUGAAGGCAUAGUCCAGGGAGGGGCGAAAGUCACACAAACCGG | 0.00614 |
| GUGCCUUGCGCCGGGAAACCACGCAAGGGAUGGUGUCAAAUUCGGCGAAACCUAAGCGCCCGCCCGGGCGUAUGGCAACGCGGAGCCAAGCUUCGGCGCCUGCGCCGAUGAAGGUGUAGGGACUAGACGGCACCCACCUAAGGCGAACGGUAUGGUGAAGGCAUAGUCCAGGGAGAGGCGAAAGUCACACAAACCGG | 0.00691 |
| GUGCCUUGCGCCGGGAAACCACGCAAGGGAUGGUGUCAAAUUCGGCGAAACCUAAGCGCCCGCCCGGGCGUAUGGCAACGCGGAGCCAAGCUUCGGCGCCUGCGCCGAUGAAGGUGUAGGGACUAGACGGCACCCACCUAAGGCGAACGGUAUGGUGAAGGCAUAGUCCAGGGAGCGGCGAAAGUCACACAAACCGG | 0.011 |
| GUGCCUUGCGCCGGGAAACCACGCAAGGGAUGGUGUCAAAUUCGGCGAAACCUAAGCGCCCGCCCGGGCGUAUGGCAACGCGGAGCCAAGCUUCGGCGCCUGCGCCGAUGAAGGUGUAGGGACUAGACGGCACCCACCUAAGGCGAACGAUAUGGUGAAGGCAUAGUCCAGGGAGGGGCGAAAGUCACACAAACCGG | 0.00757 |
| GUGCCUUGCGCCGGGAAACCACGCAAGGGAUGGUGUCAAAUUCGGCGAAACCUAAGCGCCCGCCCGGGCGUAUGGCAACGCGGAGCCAAGCUUCGGCGCCUGCGCCGAUGAAGGUGUAGGGACUAGACGGCACCCACCUAAGGCGAACGAUAUGGUGAAGGCAUAGUCCAGGGAGCGGCGAAAGUCACACAAACCGG | 0.0209 |
| GUGCCUUGCGCCGGGAAACCACGCAAGGGAUGGUGUCAAAUUCGGCGAAACCUAAGCGCCCGCCCGGGCGUAUGGCAACGCGGAGCCAAGCUUCGGCGCCUGCGCCGAUGAAGGUGUAGGGACUAGACGGCACCCACCUAAGGCGAACGAUAUGGUGAAGGCAUAGUCCAGGGAGAGGCGAAAGUCACACAAACCGG | 0.011 |
| GUGCCUUGCGCCGGGAAACCACGCAAGGGAUGGUGUCAAAUUCGGCGAAACCUAAGCGCCCGCCCGGGCGUAUGGCAACGCGGAGCCAAGCUUCGGCGCCUGCGCCGAUGAAGGUGUAGGGACUAGACGGCACCCACCUAAGGCGAACGAUAUGGUGAAGGCAUAGUCUAGGGAGAGGCGAAAGUCACACAAACCGG | 0.021 |
| GUGCCUUGCGCCGGGAAACCACGCAAGGGAUGGUGUCAAAUUCGGCGAAACCUAAGCGCCCGCCCGGGCGUAUGGCAACGCGGAGCCAAGCUUCGGCGCCUGCGCCGAUGAAGGUGUAGGGACUAGACGGCACCCACCUAAGGCGAACGAUAUGGUGAAGGCAUAGUCUAGGGAGGGGCGAAAGUCACACAAACCGG | 0.00581 |
| GUGCCUUGCGCCGGGAAACCACGCAAGGGAUGGUGUCAAAUUCGGCGAAACCUAAGCGCCCGCCCGGGCGUAUGGCAACGCGGAGCCAAGCUUCGGCGCCUGCGCCGAUGAAGGUGUAGGGACUAGACGGCACCCACCUAAGGCGAACGAUAUGGUGAAGGCAUAGUCUAGGGAGCGGCGAAAGUCACACAAACCGG | 0.0168 |
